Target: tau repeat domain (TauRD) conjugated to cerulean fluorescent protein (CFP) or yellow fluorescent protein (YFP)
Assay: FRET or BRET; HEK293 biosensor cells with TauRD-CFP and TauRD-YFP; samples holding tau seeds (rTg4510 brain lysate 12 h, cell or microglia lysate 36 h, microglia conditioned media 72 h) added with 1% Lipofectamine; CFP to YFP FRET read by flow cytometry as integrated FRET density, normalised to cells given Lipofectamine only

## tau repeat domain (TauRD) conjugated to cerulean fluorescent protein (CFP) or yellow fluorescent protein (YFP)
  normalized integrated FRET density (cells given rTg4510 microglia lysate) (normalized IFD): 308
  normalized integrated FRET density (cells given rTg4510 non-microglia cell lysate) (normalized IFD): 3570
